Test results from PMC7141810, “UBP12 and UBP13 negatively regulate the activity of the ubiquitin-dependent peptidases DA1, DAR1 and DAR2” (eLife, 2020).

T1: GST-UBP13 (Arabidopsis thaliana, UniProt Q84WU2 1-1115)
T1 construct: UBP13, Arabidopsis thaliana, AT3G11910; called full-length; also called full-length GST-UBP13; source: E. coli BL21 (DE3), purified (Glutathione Sepharose 4B beads)
T1 sequence (looked up): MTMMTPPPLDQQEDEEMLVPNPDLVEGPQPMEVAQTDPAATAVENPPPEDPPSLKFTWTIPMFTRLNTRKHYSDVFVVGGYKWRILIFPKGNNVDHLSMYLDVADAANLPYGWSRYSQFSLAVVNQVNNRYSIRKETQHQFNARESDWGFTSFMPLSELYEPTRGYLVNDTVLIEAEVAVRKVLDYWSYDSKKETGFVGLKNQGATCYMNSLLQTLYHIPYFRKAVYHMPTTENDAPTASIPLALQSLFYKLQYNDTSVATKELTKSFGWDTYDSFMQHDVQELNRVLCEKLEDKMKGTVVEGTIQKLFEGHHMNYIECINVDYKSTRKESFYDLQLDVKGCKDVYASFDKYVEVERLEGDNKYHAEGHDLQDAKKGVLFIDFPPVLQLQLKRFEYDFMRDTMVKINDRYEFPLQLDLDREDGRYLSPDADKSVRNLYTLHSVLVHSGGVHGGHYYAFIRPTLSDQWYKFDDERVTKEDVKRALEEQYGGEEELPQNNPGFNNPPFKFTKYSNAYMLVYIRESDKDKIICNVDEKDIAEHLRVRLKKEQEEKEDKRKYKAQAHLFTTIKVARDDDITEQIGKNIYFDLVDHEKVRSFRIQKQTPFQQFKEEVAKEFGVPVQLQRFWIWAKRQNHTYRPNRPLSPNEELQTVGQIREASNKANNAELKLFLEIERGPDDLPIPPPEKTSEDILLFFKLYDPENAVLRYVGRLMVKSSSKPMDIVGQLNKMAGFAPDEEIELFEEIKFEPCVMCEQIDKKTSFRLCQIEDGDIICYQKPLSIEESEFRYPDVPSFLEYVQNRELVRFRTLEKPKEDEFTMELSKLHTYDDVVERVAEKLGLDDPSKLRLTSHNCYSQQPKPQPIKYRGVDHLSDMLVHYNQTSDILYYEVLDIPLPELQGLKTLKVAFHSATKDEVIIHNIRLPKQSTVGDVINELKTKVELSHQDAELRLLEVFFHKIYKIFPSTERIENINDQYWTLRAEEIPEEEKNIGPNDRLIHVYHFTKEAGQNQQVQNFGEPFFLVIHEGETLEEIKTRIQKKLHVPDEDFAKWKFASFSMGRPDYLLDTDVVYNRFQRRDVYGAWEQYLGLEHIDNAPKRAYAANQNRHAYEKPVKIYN

T2: GST-UBP12 (Arabidopsis thaliana, UniProt Q9FPT1 1-1116)
T2 construct: UBP12, Arabidopsis thaliana, AT5G06600; called full-length; also called full-length GST-UBP12; source: E. coli BL21 (DE3), purified (Glutathione Sepharose 4B beads)
T2 sequence (looked up): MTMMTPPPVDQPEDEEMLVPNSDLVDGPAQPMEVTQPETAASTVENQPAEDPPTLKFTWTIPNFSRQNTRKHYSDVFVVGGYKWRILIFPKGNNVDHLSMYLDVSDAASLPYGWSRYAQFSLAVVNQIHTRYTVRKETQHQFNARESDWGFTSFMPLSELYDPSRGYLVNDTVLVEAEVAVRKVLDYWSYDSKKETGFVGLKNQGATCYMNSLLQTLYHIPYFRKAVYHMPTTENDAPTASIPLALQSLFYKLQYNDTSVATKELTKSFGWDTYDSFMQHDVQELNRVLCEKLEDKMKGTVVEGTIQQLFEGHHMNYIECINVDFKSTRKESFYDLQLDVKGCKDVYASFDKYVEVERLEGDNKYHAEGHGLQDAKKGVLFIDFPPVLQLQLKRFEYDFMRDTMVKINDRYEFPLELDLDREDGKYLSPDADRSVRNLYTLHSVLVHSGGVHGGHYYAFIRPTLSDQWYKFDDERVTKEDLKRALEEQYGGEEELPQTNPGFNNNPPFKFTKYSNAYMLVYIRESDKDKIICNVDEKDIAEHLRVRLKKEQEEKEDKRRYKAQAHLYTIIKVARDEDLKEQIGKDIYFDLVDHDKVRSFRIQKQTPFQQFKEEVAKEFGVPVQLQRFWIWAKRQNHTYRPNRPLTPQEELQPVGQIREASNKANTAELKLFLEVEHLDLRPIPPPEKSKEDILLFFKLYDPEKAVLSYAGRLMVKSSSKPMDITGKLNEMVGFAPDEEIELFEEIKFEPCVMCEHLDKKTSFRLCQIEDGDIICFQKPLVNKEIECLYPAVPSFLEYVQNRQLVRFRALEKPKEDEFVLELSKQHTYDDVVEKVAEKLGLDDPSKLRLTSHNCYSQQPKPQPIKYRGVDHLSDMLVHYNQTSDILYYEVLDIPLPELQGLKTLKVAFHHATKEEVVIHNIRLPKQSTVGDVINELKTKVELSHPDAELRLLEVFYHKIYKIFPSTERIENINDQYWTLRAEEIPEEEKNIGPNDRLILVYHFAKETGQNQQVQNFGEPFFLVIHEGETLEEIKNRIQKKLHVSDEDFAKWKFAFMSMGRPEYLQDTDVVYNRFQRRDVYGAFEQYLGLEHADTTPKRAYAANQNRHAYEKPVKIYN


Legend:
GST-UBP13 = target: T1, GST-UBP13; test: pull-down; in vitro; equal amounts of free GST, GST-UBP12 or GST-UBP13 as baits incubated with HIS-MBP-DA1, -DAR1 or -DAR2; purification with anti-GST beads; Western blot; settings: both partners purified
GST-UBP12 = target: T2, GST-UBP12; test: as above; settings: both partners purified

Row | binding result (GST-UBP13) | binding result (GST-UBP12) | Binder
1 | binds | binds | HIS-MBP-DA1 (natural protein, Arabidopsis thaliana, UniProt P0C7Q8 1-532, looked up, DA1, Arabidopsis thaliana, AT1G19270; source: E. coli BL21 (DE3), purified (NI-NTA agarose beads)) MGWFNKIFKGSNQRLRVGNNKHNHNVYYDNYPTASHDDEPSAADTDADNDEPHHTQEPSTSEDNTSNDQENEDIDRAIALSLLEENQEQTSISGKYSMPVDEDEQLARALQESMVVGNSPRHKSGSTYDNGNAYGAGDLYGNGHMYGGGNVYANGDIYYPRPITFQMDFRICAGCNMEIGHGRFLNCLNSLWHPECFRCYGCSQPISEYEFSTSGNYPFHKACYRERYHPKCDVCSHFIPTNHAGLIEYRAHPFWVQKYCPSHEHDATPRCCSCERMEPRNTRYVELNDGRKLCLECLDSAVMDTMQCQPLYLQIQNFYEGLNMKVEQEVPLLLVERQALNEAREGEKNGHYHMPETRGLCLSEEQTVSTVRKRSKHGTGKWAGNITEPYKLTRQCEVTAILILFGLPRLLTGSILAHEMMHAWMRLKGFRTLSQDVEEGICQVMAHKWLDAELAAGSTNSNAASSSSSSQGLKKGPRSQYERKLGEFFKHQIESDASPVYGDGFRAGRLAVHKYGLRKTLEHIQMTGRFPV
2 | binds | binds | HIS-MBP-DAR1 (natural protein, Arabidopsis thaliana, UniProt Q8W4F0 1-553, looked up, DAR1, Arabidopsis thaliana, AT4G36860; source: E. coli BL21 (DE3), purified (NI-NTA agarose beads)) MGWLTKILKGSSHKFSDGQCNGRYREDRNLEGPRYSAEGSDFDKEEIECAIALSLSEQEHVIPQDDKGKKIIEYKSETEEDDDDDEDEDEEYMRAQLEAAEEEERRVAQAQIEEEEKRRAEAQLEETEKLLAKARLEEEEMRRSKAQLEEDELLAKALQESMNVGSPPRYDPGNILQPYPFLIPSSHRICVGCQAEIGHGRFLSCMGGVWHPECFCCNACDKPIIDYEFSMSGNRPYHKLCYKEQHHPKCDVCHNFIPTNPAGLIEYRAHPFWMQKYCPSHERDGTPRCCSCERMEPKDTKYLILDDGRKLCLECLDSAIMDTHECQPLYLEIREFYEGLHMKVEQQIPMLLVERSALNEAMEGEKHGHHHLPETRGLCLSEEQTVTTVLRRPRIGAGYKLIDMITEPCRLIRRCEVTAILILYGLPRLLTGSILAHEMMHAWLRLNGYPNLRPEVEEGICQVLAHMWLESETYAGSTLVDIASSSSSAVVSASSKKGERSDFEKKLGEFFKHQIESDSSSAYGDGFRQGNQAVLKHGLRRTLDHIRLTGTFP
3 | binds | binds | HIS-MBP-DAR2 (natural protein, Arabidopsis thaliana, UniProt Q0WSN2 1-528, looked up, DAR2, Arabidopsis thaliana, AT2G39830; source: E. coli BL21 (DE3), purified (NI-NTA agarose beads)) MDSSSSSSSSSPSSSYGVARVSHISNPCIFGEVGSSSSSTYRDKKWKLMKWVSKLFKSGSNGGGSGAHTNHHPPQFQEDENMVFPLPPSSLDDRSRGARDKEELDRSISLSLADNTKRPHGYGWSMDNNRDFPRPFHGGLNPSSFIPPYEPSYQYRRRQRICGGCNSDIGSGNYLGCMGTFFHPECFRCHSCGYAITEHEFSLSGTKPYHKLCFKELTHPKCEVCHHFIPTNDAGLIEYRCHPFWNQKYCPSHEYDKTARCCSCERLESWDVRYYTLEDGRSLCLECMETAITDTGECQPLYHAIRDYYEGMYMKLDQQIPMLLVQREALNDAIVGEKNGYHHMPETRGLCLSEEQTVTSVLRRPRLGAHRLVGMRTQPQRLTRKCEVTAILVLYGLPRLLTGAILAHELMHGWLRLNGFRNLNPEVEEGICQVLSYMWLESEVLSDPSTRNLPSTSSVATSSSSSFSNKKGGKSNVEKKLGEFFKHQIAHDASPAYGGGFRAANAAACKYGLRRTLDHIRLTGTFPL
